Article PMC314469, “Protein Interaction Networks by Proteome Peptide Scanning” (PLoS Biology, 2004)

T1: Myo5 SH3 (MYO5_YEAST), Q04439
T1 chain: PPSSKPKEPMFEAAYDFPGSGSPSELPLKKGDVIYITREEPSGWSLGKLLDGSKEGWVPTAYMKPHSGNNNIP


Biological target: T1, Myo5 SH3 (MYO5_YEAST), Q04439
Assay: SPOT array

| Binder | normalised SPOT signal, Boehringer light units (BLU); mean over the file's lines of this peptide |
| --- | --- |
| AEAYLVTPEEPAKN [YDL129W 9-22] | 39.6 |
| VPSAFTAPPVPTKK [YDR517W 312-325] | 358 |
| VLLPLRLPEIPPKG [YFL036W 1323-1336] | 1070 |
| YFKELPPPSDPSSI [YDL108W 289-302] | 165 |
| VPLPFGIPPFPMFP [YKL059C 406-419] | 11600 |
| AAMMLGNPMAPAVQ [YER109C 209-222] | 257 |
| AANAHISPPVPGPA [YHL002W 373-386] | 28.6 |
| YLLELPDPLIPNDV [YFL047W 564-577] | 163 |
| WLSKLVLPPPPVSI [YHR021W-A 81-94] | 4130 |
| YEQTMKSPKYPSTY [YDR314C 535-548] | 138 |
| YEGRFWNPENPYKF [YEL011W 167-180] | 163 |
| VAWSHDSPKPPSDR [YHR163W 199-212] | 30.6 |
| VLTKMNAPQKPEDI [YCR004C 46-59] | 296 |
| VPDQLLTPLQPYTI [YJL127C 32-45] | 168 |
| VLKTLAFPINPSDI [YBR026C 53-66] | 156 |
| YLNNLAEPLIPLSL [YDR389W 216-229] | 222 |
| VFSLMNSPAYPDVQ [YIL001W 264-277] | 153 |
| AAVRLDQPILPQND [YBR018C 82-95] | 105 |

| Binder | normalised SPOT signal, Boehringer light units (BLU); mean over the file's lines of this peptide |
| --- | --- |
| YPEKFQKPYNPLAM [YJR059W 450-463] | 157 |
| VLFNLDHPMVPENL [YAL018C 292-305] | 220 |
| AAPKHAPPPVPNET [YDL019C 770-783] | 111000 |
| YASQYSRPDGPILL [YGR088W 39-52] | 114 |
| VPGEHFAPMGPNGQ [YHR098C 250-263] | 64.7 |
| YPAKLRIPETPVKK [YJL187C 187-200] | 220 |
| VLIKFVIPVYPSLP [YGR099W 37-50] | 562 |
| YFKNMSNPKIPATK [YIL125W 74-87] | 128 |
| VFKFLFHPVTPSHF [YJL005W 768-781] | 565 |
| VPDSYKPPKNPIVF [YDR058C 17-30] | 829 |
| VPNRWATPLDPSIL [YAL015C 71-84] | 126 |
| WLLPYSLPMHPGRW [YHR072W 218-231] | 706 |
| VLGVLNVPLPPQTR [YGL197W 857-870] | 233 |
| VPIIFEIPFNPIYK [YKL205W 1001-1014] | 215 |
| VFSSLRDPVIPIKL [YGL195W 2560-2573] | 132 |
| AAYDHAEPVQPEDA [YGL009C 504-517] | 146 |
| YEKALHFPAGPKST [YFL042C 472-485] | 147 |

Results, then the binder that gave them:

| normalised SPOT signal, Boehringer light units (BLU); mean over the file's lines of this peptide | Binder |
| --- | --- |
| 236 | VEPEWYLPILPMIL [YNL088W 813-826] |
| 320 | VLSKFIKPKNPSLV [YPL226W 187-200] |
| 138 | VPAILMTPISPRSL [YPL188W 282-295] |
| 290 | VLKGFYSPSAPSYD [YOR029W 22-35] |
| 169 | YLTEFSRPIPPTPS [YPL009C 61-74] |
| 150 | VEVIMHSPSDPEYA [YML117W 995-1008] |
| 14.9 | VELHFPKPEDPASI [YMR246W 254-267] |
| 57.4 | VLEAYNVPTPPRLE [YLR410W 284-297] |
| 37.9 | AADSHAIPVDPPSY [YKR021W 673-686] |
| 130 | VFGTYLGPDAPLSK [YMR272C 367-380] |
| 132 | YLNSLSEPLVPLAL [YOR134W 141-154] |
| 140 | VPGGMSIPGAPQGA [YPL169C 514-527] |
| 122 | YENSHSLPLDPQSP [YLR416C 105-118] |
| 84.9 | AAMNLETPSNPDSA [YPL217C 1040-1053] |
| 1570 | VPPNFNAPPNPMAF [YNL118C 392-405] |
| 275 | AADWYEVPKVPLSA [YLR223C 813-826] |
| 166 | AARILANPDHPFSR [YPR122W 171-184] |
| 148 | VLKNLPTPGEPFNF [YML131W 8-21] |
| 144 | YWKLFFQPEYPVRM [YLR128W 190-203] |
| 111 | YEVTFDGPNDPLHP [YLL028W 124-137] |
| 125 | YEADYVIPVLPGSH [YNL262W 2031-2044] |
| 1640 | VFLRLISPTRPSLE [YOR249C 40-53] |
| 172 | YLPHMSRPLGPDEV [YMR131C 97-110] |
